The supplement of paper PMC11811203

B1: THAP1; numbered along this chain (parent)
chain: MVQSCSAYGCKNRYDKDKPVSFHKFPLTRPSLCKEWEAAVRRKNFKPTKYSSICSEHFTPDCFKRECNNKLLKENAVPTIFLCTEPHDKKEDLLEPQEQLPPPPLPPPVSQVDAAIGLLMPPLQTPVNLSVFCDHNYTVEDTMHQRKRIHQLEQQVEKLRKKLKTAQQRCRRQERQLEKLKEVVHFQKEKDDVSERGYVILPNDYFEIVEVPA

Variants of: B1
Experiment: THAP1 transcriptional activity (GFP+/GFP- enrichment relative to wild-type constructs) (ratio to WT); higher = more THAP1 activity (PSMB5 reporter activation)
Details: with PSMB5 promoter-GFP reporter
Summary of the method: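 In duplicate, a lentivirus-delivered library with every residue from 2–213 of human THAP1 changed to all 20 amino acids was introduced at MOI ~0.3 into THAP1-knockout HEK-293T cells carrying endogenous PSMB5 tagged by mClover3 knock-in. Five days on, BFP+ cells were binned as GFP-dim or GFP-bright, and Illumina sequencing of genomic DNA amplicons counted each variant. Activity is the bright/dim read fold change, averaged over replicates and scaled to the mean of wild-type synonymous constructs.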

THAP1 transcriptional activity: each site, then its substitutions
A115: L 0.295 | M 0.233 | N 0.982 | P 0.658 | Q 0.738 | R 0.409 | S 0.742 | T 0.594 | V 0.454 | W 0.164 | Y 0.256
I116: A 1 | C 0.903 | D 1.33 | E 0.841 | F 0.452 | G 1.82 | H 0.735 | K 0.886 | L 0.739 | M 0.731 | N 0.988 | P 0.93 | Q 0.902 | R 0.984 | S 1.3 | T 1.04 | V 1.05 | W 0.472 | Y 0.918
G117: A 0.485 | C 0.534 | D 0.481 | E 1.6 | F 0.352 | H 0.396 | I 0.169 | K 0.256 | L 0.288 | M 0.138 | N 0.857 | P 1.14 | Q 0.581 | R 0.476 | S 0.877 | T 0.51 | W 0.261 | Y 0.262
L118: A 0.723 | C 0.498 | D 0.991 | E 0.947 | F 1.09 | G 0.954 | H 1.01 | I 1.1 | K 0.884 | N 2.21 | P 1.1 | Q 1.04 | R 1.19 | S 0.509 | V 0.976 | W 0.319 | Y 0.871
L119: A 0.912 | C 0.404 | D 0.609 | E 1.03 | F 0.425 | G 0.614 | H 0.929 | I 1.11 | K 1.25 | M 0.525 | N 1.09 | P 1.08 | Q 0.718 | R 0.731 | S 0.92 | V 0.5 | W 0.533 | Y 0.443
M120: A 0.822 | C 0.909 | D 1.08 | E 1.25 | F 0.651 | G 0.81 | H 0.611 | I 1.14 | K 1.37 | L 0.534 | N 1.38 | P 1.25 | Q 1.57 | R 0.835 | S 0.984 | T 1.85 | V 1.24 | W 0.324 | Y 0.474
P121: A 1.18 | C 0.259 | D 0.48 | E 0.735 | F 0.115 | G 0.454 | I 0.299 | K 0.594 | L 0.104 | M 0.288 | N 0.457 | Q 0.491 | R 0.501 | S 0.441 | V 0.207 | W 0.0793 | Y 0.185
P122: A 0.914 | C 0.319 | D 0.515 | E 0.885 | F 0.156 | G 0.667 | H 0.355 | I 0.39 | K 0.728 | L 0.692 | M 0.226 | Q 0.769 | R 0.328 | S 0.627 | T 0.614 | V 0.214 | W 0.159 | Y 0.254
L123: A 0.859 | C 0.584 | D 1.45 | E 1.45 | F 0.608 | G 0.957 | H 1.24 | I 0.913 | K 0.809 | M 0.859 | N 1.54 | P 1.05 | Q 0.814 | R 1.45 | S 0.637 | T 1.44 | V 1.01 | W 0.642 | Y 0.693
Q124: A 0.569 | C 0.587 | D 0.637 | E 0.458 | F 0.463 | G 0.787 | H 0.399 | I 0.516 | K 0.879 | L 0.212 | M 0.487
